According to article PMC4150532:

What was measured:
[1] = molecular target: T1, GST-Elp1 CTD (Saccharomyces cerevisiae) (UniProt Q06706); assay: EMSA; settings: native tRNA modifications; 5' phosphate removed, then 5' 32P-labelled; 20 mM Tris-HCl pH 7.5, 150 mM NaCl, 2 mM MgCl2, 8% glycerol, 10 U Ribolock; 45 min at room temperature; 1.5% native agarose gel in 0.5x TBE
T1 sequence: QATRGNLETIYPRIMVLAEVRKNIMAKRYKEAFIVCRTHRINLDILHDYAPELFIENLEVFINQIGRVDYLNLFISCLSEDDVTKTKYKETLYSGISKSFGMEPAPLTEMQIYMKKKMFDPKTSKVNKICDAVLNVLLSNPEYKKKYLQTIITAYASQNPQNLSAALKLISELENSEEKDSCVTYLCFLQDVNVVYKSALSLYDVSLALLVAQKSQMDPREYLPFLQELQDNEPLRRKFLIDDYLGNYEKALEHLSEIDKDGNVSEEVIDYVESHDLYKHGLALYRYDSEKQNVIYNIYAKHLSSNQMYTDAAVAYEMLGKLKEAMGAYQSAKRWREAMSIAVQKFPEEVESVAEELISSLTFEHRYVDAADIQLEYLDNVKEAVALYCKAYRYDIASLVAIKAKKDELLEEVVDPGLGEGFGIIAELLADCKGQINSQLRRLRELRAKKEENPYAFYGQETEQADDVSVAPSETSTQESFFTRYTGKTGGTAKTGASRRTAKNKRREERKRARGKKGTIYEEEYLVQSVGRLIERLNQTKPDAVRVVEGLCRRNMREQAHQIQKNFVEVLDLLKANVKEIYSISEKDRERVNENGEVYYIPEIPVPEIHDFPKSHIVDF

[2] = molecular target: Elp1–KR9A–GFP (GFP-tagged Elp1 basic region mutant, nine basic residues to alanine) (S. cerevisiae) (UniProt Q06706); assay: co-IP; GFP–Trap beads precipitate the GFP-tagged protein from yeast lysate; HA-tagged partners found by anti-HA blot and measured by densitometry; lysis buffer 50 mM HEPES-KOH pH 7.5, 150 mM NaCl, 2 mM MgCl2, 0.1% Triton X-100; 4°C

With total yeast tRNA (Sigma R9001) the Kd [1] was 550 nM.

B1: Elp5-3HA (HA-tagged Elp5 subunit of Elongator) (natural protein)
chain: MASSSHNPVILLKRILSLTESSPFILCLDSIAQTSYKLIQEFVHQSKSKGNEYPIVYISFETVNKPSYCTQFIDATQMDFVHLVKQIISYLPAATATQAKKHMVIIDSLNYISTEYITRFLSEIASPHCTMVATYHKDIKDENRTVIPDWNNNYPDKLTLLQFMATTIVDIDVVLTGTLDTEEVSELLNEFRIPRGLNNDIFQLRLVNKRKSGRSLEYDFIVNSNTHEYELLSTTKQEEESSSNGLETPEMLQGLTTFNLGTSNKQKLAKDQVALPFLEAQSFGQGGAIVYEYEKDDDYDEEDPYEDPF
Molecule B1 has a percent less co-precipitated than with wild-type Elp1–GFP (densitometry) [2] of 30%.

B2: Kti12-3HA (HA-tagged Elongator accessory protein Kti12) (natural protein)
chain: MPLVLFTGYPCSGKTTLAKHLVQLLQSKIDATPSLSKYSITYHSDESLGIKHSDYITSQDERKLRSEIISAVKRDLSKNKIVIVDSLNYIKGFRYQLHCEVKNLSTTFCVIQTLCPPETIFEWNKTSNPNPWEPELLNQLIQRYEEPNSSNRWDSPLFAILTPQDNITDYIDDICKVVFQTSKSAKNSGHNDPLSKGLQKPNSATVLKPASQSNFIQVLDIETSKIIKTIMNHIKSLTSIGGVSNGTRVIVSEGITDINDDGCFFVDLPIGNVVTLAQLQRLKRQFINFNKLRDIDQDRIGPLFADYLNKNLN
Molecule B2 has a percent less co-precipitated than with wild-type Elp1–GFP (densitometry) [2] of 40%.
